Patent US20260248939A1 (SYNAFFIX B V, published 2026)

Columns and labels:
[1] = target: T1, Rat PTK7 (His Tag, Acro Biosystems) (rat, UniProt A0A8I6ALM9 40-713); assay: ELISA: His-tagged PTK7 on nickel plate, ADC at 8 µg/mL (Example 25), goat anti-human IgG-HRP, TMB, absorbance at 652 nm, background-corrected
T1 construct: Bought protein; also called rPTK7; not shown: His tag

[2] = target: T2, Human PTK7 (CCK4 protein, ECD, His Tag, Sino Biological) (human, UniProt Q13308 31-704); assay: as above
T2 construct: extracellular domain; Bought protein; also called hPTK7; HPTK7; not shown: His tag
T2 sequence (looked up): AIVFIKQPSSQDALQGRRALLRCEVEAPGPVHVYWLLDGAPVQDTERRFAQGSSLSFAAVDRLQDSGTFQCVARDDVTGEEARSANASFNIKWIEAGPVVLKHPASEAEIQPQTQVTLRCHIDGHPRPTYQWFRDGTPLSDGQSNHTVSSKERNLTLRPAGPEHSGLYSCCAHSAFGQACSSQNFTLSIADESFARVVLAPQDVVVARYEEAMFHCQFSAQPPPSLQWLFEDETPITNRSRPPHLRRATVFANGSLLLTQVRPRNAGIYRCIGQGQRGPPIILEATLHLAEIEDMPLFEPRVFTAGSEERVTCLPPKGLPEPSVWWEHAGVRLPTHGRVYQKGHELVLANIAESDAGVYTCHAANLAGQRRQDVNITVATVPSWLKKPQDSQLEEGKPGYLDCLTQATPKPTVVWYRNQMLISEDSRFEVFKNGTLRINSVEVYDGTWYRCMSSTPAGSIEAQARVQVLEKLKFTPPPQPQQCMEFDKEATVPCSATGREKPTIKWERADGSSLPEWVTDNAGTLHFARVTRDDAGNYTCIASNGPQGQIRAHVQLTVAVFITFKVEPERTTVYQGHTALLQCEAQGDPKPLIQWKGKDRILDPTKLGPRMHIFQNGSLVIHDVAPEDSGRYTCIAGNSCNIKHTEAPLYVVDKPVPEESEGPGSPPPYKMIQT

[3] = target: T2, Human PTK7 (CCK4 protein, ECD, His Tag, …); assay: ELISA: His-tagged hPTK7 on nickel plate, ADC at 8 µg/mL (Example 25), goat anti-human IgG-HRP, TMB, absorbance at 652 nm, background-corrected
[4] = target: T3, cynomolgus PTK7 (CCK4 protein, ECD, His Tag, Sino Biological) (cynomolgus, UniProt A0A2K5VNI5 39-712); assay: ELISA: His-tagged PTK7 on nickel plate, ADC at 8 µg/mL (Example 25), goat anti-human IgG-HRP, TMB, absorbance at 652 nm, background-corrected
T3 construct: extracellular domain; Bought protein; also called cPTK7; cyno PTK7; not shown: His tag
T3 sequence: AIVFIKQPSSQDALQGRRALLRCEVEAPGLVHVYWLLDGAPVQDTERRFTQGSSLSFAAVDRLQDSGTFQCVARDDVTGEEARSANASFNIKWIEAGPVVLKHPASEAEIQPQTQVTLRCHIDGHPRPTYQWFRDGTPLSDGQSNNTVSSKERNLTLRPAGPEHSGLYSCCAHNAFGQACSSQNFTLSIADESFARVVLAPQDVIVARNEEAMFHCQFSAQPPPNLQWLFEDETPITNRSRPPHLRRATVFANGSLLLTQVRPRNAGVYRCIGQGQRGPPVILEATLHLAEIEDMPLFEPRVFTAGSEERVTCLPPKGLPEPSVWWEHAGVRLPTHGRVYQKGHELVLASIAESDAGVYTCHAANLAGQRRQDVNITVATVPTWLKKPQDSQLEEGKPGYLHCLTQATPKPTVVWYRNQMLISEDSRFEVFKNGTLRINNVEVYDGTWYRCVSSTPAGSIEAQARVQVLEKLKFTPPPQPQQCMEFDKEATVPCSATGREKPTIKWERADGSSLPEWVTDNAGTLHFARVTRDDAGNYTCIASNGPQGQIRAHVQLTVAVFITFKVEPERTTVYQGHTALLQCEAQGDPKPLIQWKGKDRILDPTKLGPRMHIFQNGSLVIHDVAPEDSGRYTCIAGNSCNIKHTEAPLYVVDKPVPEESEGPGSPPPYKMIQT

B1: 4D5-3 (antibody, human IgG1, kappa, V domains shown)
VH: QVQLVESGGGVVQPGRSLRLSCAASGFTFSSYAFHWVRQAPGKGLEWVAVISYDGSIKYYADSVKGRFTISRDNSKNTLYLQMNSLRAEDTAVYYCARTYYFDYWGQGTLVTVSS
VL: EIVLTQSPDFQSVTPKEKVTITCRASQSIGSSLHWYQQKPDQSPKLLIKYASQSFSGVPSRFSGSGSGTDFTLTINSLEAEDAAAYYCHQSSSLPITFGQGTRLEIKR
modifications: heavy-chain N-glycan trimmed to core GlcNAc, extended with 6-N3-GalNAc and clicked to BCN-HS-PEG2-HS-(va-PAB-Ex)2 (linker-drug 3, exatecan); average DAR 3.91
binding result [1]: no binding (tested: 8 µg/mL)
binding result [2]: binds

B2: B12-3 (antibody, human IgG1, kappa, V domains shown)
VH: QVQLVQSGAEVKKPGASVKVSCQASGYRFSNFVIHWVRQAPGQRFEWMGWINPYNGNKEFSAKFQDRVTFTADTSANTAYMELRSLRSADTAVYYCARVGPYSWDDSPQDNYYMDVWGKGTTVIVSS
VL: EIVLTQSPGTLSLSPGERATFSCRSSHSIRSRRVAWYQHKPGQAPRLVIHGVSNRASGISDRFSGSGSGTDFTLTITRVEPEDFALYYCQVYGASSYTFGQGTKLERKR
notes: also called B12 (VI) conjugated with linker-drug 3; isotype control ADC
binding result [3]: no binding (tested: 8 µg/mL)

B3: 12C6a-3 (antibody, human IgG1, kappa, V domains shown)
VH: VQLVQSGGGLVHPGGSLRLSCAGSGFTFSTYLMYWVRQAPGKTLEWVSAIGSGGDTYYADSVKGRFTISRDNAKNSLYLQMNSLRAEDMAVYYCARGLGYWGQGTLVTVSS
VL: DIQMTQSPSSLSASVGDRVTITCRASQGISSWLAWYQQKPEKAPKSLIYAASSLQSGVPSRFSGSGSGTDFTLTISSLQPEDFATYYCQQYNSYPYTFGQGTKLEIKR
modifications: heavy-chain N-glycan trimmed to core GlcNAc, extended with 6-N3-GalNAc and clicked to BCN-HS-PEG2-HS-(va-PAB-Ex)2 (linker-drug 3, exatecan); average DAR 3.90
notes: Antibody-drug conjugate of IgG 12C6a (V)
binding result [4]: no binding (tested: 8 µg/mL)
binding result [1]: no binding (tested: 8 µg/mL)
binding result [2]: no binding (tested: 8 µg/mL)
